{
  "source": "paper PMC5705181",
  "about": "(Science (New York, N.Y.), 2017)",
  "molecules": {"B1": {"name": "t4LHypD (trans-4-hydroxy-L-proline dehydratase, GRE Cluster 15) (Clostridioides difficile) (protein)", "chain": "MARGTFERTKKLREESINAEPHISIERAVLMTEAYKKYEGSVEIPVLRALSFKHYIENRTLSINDGELIVGEKGDSPNGAPTYPEICCHTMEDLEVMHNRDIINFSVSEEARKIHKEEIIPFWKKRQTRDKIINAMTPEWLAAYEAGMFTEFMEQRAPGHTVCGDTIYKKGFLDLKKDIEARLKELDFLNDLDAYNKKADLEAMAIACDAMVILGKRYAEKARQMAEEETDEAKKKDLLLIAETCDVVPAHKPETYHQAIQMYWFVHIGVTTELNIWDAFTPGRLDQHLNPFYERDVENGILDRDRAQELLECLWVKFNNQPAPPKVGITLKESSTYTDFANINTGGINPDGQDGVNEVSYIILDVMDEMKLIQPSSNVQISKKTPQKFLKRACEISRKGWGQPAFYNTEAIVQELMEAGKTIEDARLGGTSGCVETGCFGKEAYVLTGYMNIPKILELTLNNGYDPISKKQIGIETGDPRNFQSYEELFEAFKKQLHYMIDIKIEGNAVIENICAKHMPCPLMSTIVDDCIEKGKDYQRGGARYNTRYIQGVGIGTITDSLTAIKYNVFDKKKFDMDTLLKALDANFEGYEAILNLVSNKTPKYGNDDDYADEIMQEIFNAYYNEVTGRPTVCGGEYRVDMLPTTCHIYFGEIMGASPNGRLCAKPVSEGISPEKGGDTNGPTAVIKSCAKMDHIKTGGTLLNQRFAPSVVQGEKGLDNMANLVRAYFNMDGHHIQFNVFDKNVLLEAQKNPQDYKDLIVRVAGYSDHFNNLSRTLQDEIIGRTEQTF"}, "B2": {"name": "PD (propanediol dehydratase, GRE Cluster 16) (Roseburia inulinivorans) (protein)", "chain": "MGNYDSTPIAKSDRIKRLVDHLYAKMPEIEAARAELITESFKATEGQPVVMRKARAFEHILKNLPIIIRPEELIVGSTTIAPRGCQTYPEFSYEWLEAEFETVETRSADPFYISEETKKRLLAADAYWKGKTTSELATSYMAPETLRAMKHNFFTPGNYFYNGVGHVTVQYETVLAIGLNGVKEKVRKEMENCHFGDADYSTKMCFLESILISCDAVITYANRYAKMAEEMAEKETDAARRQELLTIARVCKNVPEFPAESFQEACQSFWFIQQVLQIESSGHSISPGRFDQYMYPYYEKDLKEGSLTREYAQELIDCIWVKLNDLNKCRDAASAEGFAGYSLFQNLIVGGQTVQGRDATNDLSFMCITASEHVFLPMPSLSIRVWHGSSKALLMRAAELTRTGIGLPAYYNDEVIIPALVHRGATMDEARNYNIIGCVEPQVPGKTDGWHDAAFFNMCRPLEMVFSNGYDNGEIASIQTGNVESFQSFDEFMEAYRKQMLYNIELMVNADNAIDYAHAKLAPLPFESCLVDDCIKRGMSAQEGGAIYNFTGPQGFGIANVADSLYTIKKLVFEEKRITMGELKKALEMNYGKGLDATTAGDIAMQVAKGLKDAGQEVGPDVIANTIRQVLEMELPEDVRKRYEEIHEMILELPKYGNDIDEVDELAREAAYFYTRPLETFKNPRGGMYQAGLYPVSANVPLGAQTGATPDGRLAHTPVADGVGPTSGFDISGPTASCNSVAKLDHAIASNGTLFNMKMHPTAMAGEKGLESFISLIRGYFDQQGMHMQFNVVDRATLLDAQAHPEKYSGLIVRVAGYSALFTTLSKSLQDDIIKRTEQADNR"}},
  "key": {"P5C reductase": {"target": "P5C reductase (Clostridioides difficile, UniProt Q180C5)", "assay": "spectrophotometric assay", "format": "biochemical", "details": "mere turnover"}, "purified protein [1]": {"substrate": "O=C(O)[C@@H]1C[C@@H](O)CN1", "assay": "purified protein", "format": "biochemical, Clostridioides difficile", "details": "activated by t4LHypD-AE, SAM, acriflavine; anaerobic"}, "purified protein [2]": {"substrate": "C[C@H](O)CO", "assay": "purified protein", "details": "activated by PD-AE, SAM, 5-deazariboflavin; anaerobic"}, "purified protein [3]": {"substrate": "C[C@@H](O)CO", "assay": "purified protein", "details": "activated by PD-AE, SAM, 5-deazariboflavin; anaerobic"}},
  "data": [
    {"molecule": "O=C(O)[C@@H]1CCC=N1", "note": "[Δ^1-pyrroline-5-carboxylate]", "values": [
      {"measurement": "spectrophotometric assay", "setting": "P5C reductase; NADH as reductant in the coupled assay", "result": "P5C reductase could interconvert P5C and L-proline"}
    ]},
    {"molecule": "O=C(O)[C@@H]1CCCN1", "note": "[L-proline]", "values": [
      {"measurement": "spectrophotometric assay", "setting": "P5C reductase; reverse direction (interconversion with P5C)", "result": "P5C reductase could interconvert P5C and L-proline"}
    ]},
    {"molecule": "B1", "values": [
      {"measurement": "Km", "setting": "purified protein [1]", "result": "1.2 ± 0.1", "unit": "mM"},
      {"measurement": "kcat", "setting": "purified protein [1]", "result": "45 ± 1", "unit": "s⁻¹"}
    ]},
    {"molecule": "B2", "values": [
      {"measurement": "Km", "setting": "purified protein [2]", "result": "8 ± 1", "unit": "mM"},
      {"measurement": "kcat", "setting": "purified protein [2]", "result": "1500 ± 100", "unit": "s⁻¹"},
      {"measurement": "Km", "setting": "purified protein [3]", "result": "44 ± 4", "unit": "mM"},
      {"measurement": "kcat", "setting": "purified protein [3]", "result": "330 ± 40", "unit": "s⁻¹"}
    ]}
  ]
}
